Residue numbers refer to the chain shown, from its start. In names and notes the source's numbering stands. Read-outs that look alike come from different tables or passages of the source. Each block holds one molecule with its values, some of them ahead of it.
Legend:
[1] = biological target: T1, NpSRII/NpHtrII1-157 complex (sensory rhodopsin II with its cognate transducer) (Natronomonas pharaonis, UniProt P42196); assay: X-ray crystallography, trapped M intermediate; assay type: binding; details: active M state, light-induced; space group I212121; 1.9 A; covalent (retinal Schiff base, Lys205)
T1 construct: gene sop2; wild-type NpSRII with truncated transducer NpHtrII residues 1-157; produced in E. coli, reconstituted; 2:2 complex; with Sensory rhodopsin II transducer
T1 sequence (P42196 2-239): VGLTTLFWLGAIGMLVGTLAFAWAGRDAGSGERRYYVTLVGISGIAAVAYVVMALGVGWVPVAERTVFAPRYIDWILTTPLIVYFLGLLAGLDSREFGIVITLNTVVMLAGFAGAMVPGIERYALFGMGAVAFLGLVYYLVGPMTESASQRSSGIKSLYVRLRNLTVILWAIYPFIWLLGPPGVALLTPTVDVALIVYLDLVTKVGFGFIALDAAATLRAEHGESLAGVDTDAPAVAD
T1 sequence (P42259 1-157 partner): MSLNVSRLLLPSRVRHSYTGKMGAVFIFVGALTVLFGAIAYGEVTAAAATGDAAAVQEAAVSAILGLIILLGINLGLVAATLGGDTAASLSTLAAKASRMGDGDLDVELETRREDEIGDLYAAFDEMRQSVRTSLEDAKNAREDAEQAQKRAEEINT

[2] = biological target: T1, NpSRII/NpHtrII1-157 complex (sensory rhodopsin II with its cognate transducer); assay: X-ray crystallography; assay type: binding; details: ground state; space group I212121; 1.9 A; in meso crystals, pH 5.6; covalent (retinal Schiff base, Lys205)
[3] = biological target: T2, NpSRII/NpHtrII1-135 complex (Natronomonas pharaonis, UniProt P42196); assay: X-ray crystallography; assay type: binding; details: space group P21212; covalent (retinal Schiff base, Lys205); retinal isomer not stated separately for this crystal
T2 construct: gene sop2; wild-type NpSRII with truncated transducer NpHtrII residues 1-135; produced in E. coli, reconstituted; 2:2 complex; with Sensory rhodopsin II transducer
T2 sequence (P42259 1-135 G83F, form open, one chain of several): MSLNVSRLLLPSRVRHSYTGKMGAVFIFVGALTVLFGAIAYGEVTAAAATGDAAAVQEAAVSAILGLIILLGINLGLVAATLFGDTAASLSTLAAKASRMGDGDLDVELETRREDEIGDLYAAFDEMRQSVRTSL

[4] = biological target: T3, NpSRII/NpHtrII1-135 complex (Natronomonas pharaonis, UniProt P42196); assay: X-ray crystallography; assay type: binding; details: ground state; covalent (retinal Schiff base, Lys205); retinal isomer not stated separately for this crystal
T3 construct: gene sop2; wild-type NpSRII with truncated transducer NpHtrII residues 1-135; produced in E. coli, reconstituted; 2:2 complex; with Sensory rhodopsin II transducer
T3 sequence (P42196 2-239): T1 sequence (P42196 2-239)
T3 sequence (P42259 1-135 partner): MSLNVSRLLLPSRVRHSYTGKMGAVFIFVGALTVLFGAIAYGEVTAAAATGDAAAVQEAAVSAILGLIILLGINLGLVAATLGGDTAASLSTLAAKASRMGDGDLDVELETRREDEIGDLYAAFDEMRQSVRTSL

[5] = biological target: NpHtrII (Natronomonas pharaonis) (UniProt P42259); details: cited from earlier work
[6] = biological target: NpHtrII (Natronomonas pharaonis) (UniProt P42259); details: cited from earlier work; remark: listed apart in the source
[7] = biological target: T4, sensory rhodopsin II from N. pharaonis (NpSRII) (N. pharaonis, UniProt P42196 1-239, retinal bound through a Schiff base (Lys205)); assay: crystal structure; ground state of the complex with NpHtrII 1-135 (PDB 5JJJ); in meso crystals; space group not tied to this entry in the text (P6_(4) likely); details: both partners purified
T4 construct: sensory rhodopsin II (NpSRII), N. pharaonis, wild type; also called the receptor; source: E. coli, purified, reconstituted into a functional complex, and resolubilized
T4 sequence (looked up): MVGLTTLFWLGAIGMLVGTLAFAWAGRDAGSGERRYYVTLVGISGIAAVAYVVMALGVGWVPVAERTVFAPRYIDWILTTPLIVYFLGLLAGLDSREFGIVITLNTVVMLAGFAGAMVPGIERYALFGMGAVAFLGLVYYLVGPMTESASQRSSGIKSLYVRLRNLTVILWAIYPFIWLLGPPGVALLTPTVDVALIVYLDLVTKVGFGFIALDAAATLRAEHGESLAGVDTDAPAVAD

[8] = biological target: T4, sensory rhodopsin II from N. pharaonis …; assay: crystal structure; complex with the G83F mutant, space group P2_(1)2_(1)2, "V"-shape; crystallization conditions the same as for the wild type complex in the P6_(4) space group; details: both partners purified
[9] = biological target: the molecule itself; assay: crystal structure; ground state, space group I2_(1)2_(1)2_(1), 1.9 Å; in meso crystallization (monooleoyl), 22 °C, 1 M Na/K phosphate pH 5.6, trehalose
[10] = biological target: T4, sensory rhodopsin II from N. pharaonis …; assay: as above; details: both partners purified

Molecule: CC1=C(/C=C/C(C)=C/C=C/C(C)=C\C=O)C(C)(C)CCC1 [13-cis retinal]
- X-ray crystallography, trapped M intermediate [1]: the retinal chromophore switches from all-trans conformation to 13-cis

- X-ray crystallography [4]: 5JJJ (NpSRII/HtrII-135 ground state)
Molecule: CC1=C(/C=C/C(C)=C/C=C/C(C)=C/C=O)C(C)(C)CCC1 [all-trans retinal]
- X-ray crystallography [2]: the retinal chromophore switches from all-trans conformation to 13-cis
- X-ray crystallography [3]: crystal structure of the NpSRII/NpHtrII1–135-G83F mutant demonstrate different crystal packing

Molecule: NpSRII (active state) (from UniProt P42196)
- Kd [5]: 15 µM

Molecule: NpSRII (from UniProt P42196)
- Kd [6]: 0.1 µM

- binding result [7]: binds
B1: NpHtrII_(1-135), shortened transducer (domain or fragment, N. pharaonis, UniProt P42259 1-135, looked up)
chain: T3 sequence (P42259 1-135 partner)
notes: source: E. coli, purified, reconstituted into a functional complex, and resolubilized

- binding result [8]: binds
B2: NpHtrII_(1-135)-G83F mutant (domain or fragment, N. pharaonis, UniProt P42259 1-135, looked up)
chain: T3 sequence (P42259 1-135 partner) with G83F
notes: as for B1

- binding result [10]: binds
B3: NpHtrII_(1-157), shortened cognate transducer of NpSRII (domain or fragment, N. pharaonis, UniProt P42259 1-157, looked up)
chain: T1 sequence (P42259 1-157 partner)
notes: NpHtrII, transducer of sensory rhodopsin II, N. pharaonis, residues 1-157 (transmembrane helices TM1 and TM2, HAMP1 and linker); only the transmembrane part is seen in the electron density; also called HtrII-157; the transducer; source: E. coli, purified, reconstituted into a functional complex, and resolubilized
- binding result [9]: binds

— paper PMC5292967, “New Insights on Signal Propagation by Sensory Rhodopsin II/Transducer Complex” (Scientific Reports, 2017)
